How the values were obtained:
[1] = molecular target: Human EphA2-Fc fusion protein (human EphA2 fused with the Fc portion of a human IgG1) (human) (UniProt P29317); assay: single point ELISA: periplasmic Fab captured on 500 ng goat anti-human Fab, biotinylated human EphA2-Fc, neutravidin-HRP
[2] = molecular target: Human EphA2-Fc fusion protein (human EphA2 fused with the Fc portion of a human IgG1) (human) (UniProt P29317); assay: single point ELISA, 500 ng goat anti-human Fab capture, biotinylated EphA2-Fc; plate of clone VH-233/VL-12C8
[3] = molecular target: Human EphA2-Fc fusion protein (human EphA2 fused with the Fc portion of a human IgG1) (human) (UniProt P29317); assay: single point ELISA, 500 ng goat anti-human Fab capture, biotinylated EphA2-Fc; plate of clone VH-2G6/VL-12C8
[4] = molecular target: Human EphA2-Fc fusion protein (human EphA2 fused with the Fc portion of a human IgG1) (human) (UniProt P29317); assay: single point ELISA: periplasmic Fab captured on 500 ng goat anti-human Fab, biotinylated human EphA2-Fc, neutravidin-HRP; remark: listed apart in the source
[5] = molecular target: Human EphA2-Fc fusion protein (human EphA2 fused with the Fc portion of a human IgG1) (human) (UniProt P29317); assay: single point ELISA, 500 ng goat anti-human Fab capture, biotinylated EphA2-Fc; plate of clone VH-233/VL-8G7
[6] = molecular target: Human EphA2-Fc fusion protein (human EphA2 fused with the Fc portion of a human IgG1) (human) (UniProt P29317); assay: single point ELISA, 500 ng goat anti-human Fab capture, biotinylated EphA2-Fc; plate of clone VH-7E8/VL-8G7
[7] = molecular target: Human EphA2-Fc fusion protein (human EphA2 fused with the Fc portion of a human IgG1) (human) (UniProt P29317); assay: single point ELISA: periplasmic Fab captured on 100 ng goat anti-human Fab, biotinylated human EphA2-Fc, neutravidin-HRP
[8] = molecular target: Human EphA2-Fc fusion protein (human EphA2 fused with the Fc portion of a human IgG1) (human) (UniProt P29317); assay: single point ELISA: periplasmic Fab captured on 20 ng goat anti-human Fab, biotinylated human EphA2-Fc, neutravidin-HRP
[9] = molecular target: Human EphA2-Fc fusion protein (human EphA2 fused with the Fc portion of a human IgG1) (human) (UniProt P29317); assay: single point ELISA: periplasmic Fab captured on 500 ng goat anti-human Fab, biotinylated human EphA2-Fc, neutravidin-HRP; remark: listed apart in the source
[10] = molecular target: Human EphA2-Fc fusion protein (human EphA2 fused with the Fc portion of a human IgG1) (human) (UniProt P29317); assay: single point ELISA, 500 ng goat anti-human Fab capture, biotinylated EphA2-Fc; plate of clone VH-6H11/VL-8G7
[11] = molecular target: Human EphA2-Fc fusion protein (human EphA2 fused with the Fc portion of a human IgG1) (human) (UniProt P29317); assay: SPR (BIAcore 3000), IgG over immobilized EphA2-Fc (~500 RU), 1:1 Langmuir fit
[12] = molecular target: Human EphA2-Fc fusion protein (human EphA2 fused with the Fc portion of a human IgG1) (human) (UniProt P29317); assay: SPR (BIAcore 3000), IgG over immobilized EphA2-Fc, 1:1 Langmuir fit

Sequence of Human EphA2-Fc fusion protein (human EphA2 fused with the Fc portion of a human IgG1) (human) (P29317 24-534 limits assumed): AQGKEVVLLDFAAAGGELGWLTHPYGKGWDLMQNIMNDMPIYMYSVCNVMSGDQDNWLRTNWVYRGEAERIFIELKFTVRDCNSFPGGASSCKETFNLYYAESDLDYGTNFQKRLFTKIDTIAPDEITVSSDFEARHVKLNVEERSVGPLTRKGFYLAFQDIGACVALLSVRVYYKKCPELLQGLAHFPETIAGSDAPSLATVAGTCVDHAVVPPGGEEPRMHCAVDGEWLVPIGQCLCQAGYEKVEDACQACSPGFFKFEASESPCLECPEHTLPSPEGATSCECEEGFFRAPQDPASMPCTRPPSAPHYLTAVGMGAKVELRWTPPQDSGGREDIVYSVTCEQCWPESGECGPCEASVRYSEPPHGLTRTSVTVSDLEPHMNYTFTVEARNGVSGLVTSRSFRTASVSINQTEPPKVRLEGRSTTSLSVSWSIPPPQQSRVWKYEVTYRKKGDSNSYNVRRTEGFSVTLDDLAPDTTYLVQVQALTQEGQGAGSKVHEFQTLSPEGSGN

Q: Which OD450 (background signal) [1] does the source give for irrelevant antibody (MEDI-493) here?
A: 0.3

Q: And the OD450 (background signal) [2]?
A: 0.1

Q: And the OD450 (background signal) [3]?
A: 0.3

Q: What about the OD450 (background signal) [4] of the same molecule?
A: 0.07 to 0.1

Q: And the OD450 (background signal) [5]?
A: 0.2

Q: What about the OD450 (background signal) [6] of the same molecule?
A: 0.2

Q: And the OD450 (background signal) [7]?
A: 0.1 to 0.4

Q: What about the OD450 (background signal) [8] of the same molecule?
A: 0.1

Q: What about the OD450 (background signal) [9] of the same molecule?
A: 0.06 to 0.2

Q: And the OD450 (background signal) [10]?
A: 0.2

B1: mouse anti-human EphA2 monoclonal antibody EA2 (antibody, from a related filing, V domains shown)
VH: DVKLVESGGGLVKPGGSLKLSCAASGFTFSSYTMSWVRQTPEKRLEWVATISSGGTYTYYPDSVKGRFTISRDNAKNTLYLQMSSLKSEDTAMYYCTREAIFTYWGQGTLVTVSA
VL: DIKMTQSPSSMYASLGERVTITCKASQDINNYLSWFQQKPGKSPKTLIYRANRLVDGVPSRFSGSGSGQDYSLTISSLEYEDMGIYYCLKYDEFPYTFGGGTKLEIK
Q: Which results are given for B1?
A: Kd [11]: 5940 pM; koff [11]: 0.00307 s⁻¹; kon [11]: 517000 M⁻¹ s⁻¹

B2: mouse anti-human EphA2 monoclonal antibody B233 (antibody, from a related filing, V domains shown)
VH: EVKLVESGGGLVQPGGSLSLSCAASGFTFTDYSMNWVRQPPGKALEWLGFIRNKANDYTTEYSASVKGRFTISRDNSQSILYLQMNALRAEDSATYYCVRYPRYHAMDSWGQGTSVTVSS
VL: DIVLTQSPATLSVTPGDSVNLSCRASQSISNNLHWYQQKSHESPRLLIKYVFQSISGIPSRFSGSGSGTDFTLSINSVETEDFGMYFCQQSNSWPLTFGAGTKLELK
Q: B2 was tested. Which Kd [12] did it give?
A: 400 pM

Q: And the koff [12]?
A: 0.00011 s⁻¹

Q: What about the kon [12] of the same molecule?
A: 280000 M⁻¹ s⁻¹

B3: chimaeric form of mAb B233 (VH-233/VL-233) as full length human IgG1 (antibody, from a related filing, V domains shown)
VH: EVKLVESGGGLVQPGGSLSLSCAASGFTFTDYSMNWVRQPPGKALEWLGFIRNKANDYTTEYSASVKGRFTISRDNSQSILYLQMNALRAEDSATYYCVRYPRYHAMDSWGQGTSVTVSS
VL: DIVLTQSPATLSVTPGDSVNLSCRASQSISNNLHWYQQKSHESPRLLIKYVFQSISGIPSRFSGSGSGTDFTLSINSVETEDFGMYFCQQSNSWPLTFGAGTKLELK
Q: How did the Kd [12] turn out when B3 was run?
A: 300 pM

Q: What about the koff [12] of the same molecule?
A: 8e-05 s⁻¹

Q: What about the kon [12] of the same molecule?
A: 240000 M⁻¹ s⁻¹
